Measured values: patent US20250333474A1

Biological target: T1, H-2K^b of MHC class I of MutuDC1940 cells (without loaded OVA^257-264 peptide) (mouse)
T1 chain 1: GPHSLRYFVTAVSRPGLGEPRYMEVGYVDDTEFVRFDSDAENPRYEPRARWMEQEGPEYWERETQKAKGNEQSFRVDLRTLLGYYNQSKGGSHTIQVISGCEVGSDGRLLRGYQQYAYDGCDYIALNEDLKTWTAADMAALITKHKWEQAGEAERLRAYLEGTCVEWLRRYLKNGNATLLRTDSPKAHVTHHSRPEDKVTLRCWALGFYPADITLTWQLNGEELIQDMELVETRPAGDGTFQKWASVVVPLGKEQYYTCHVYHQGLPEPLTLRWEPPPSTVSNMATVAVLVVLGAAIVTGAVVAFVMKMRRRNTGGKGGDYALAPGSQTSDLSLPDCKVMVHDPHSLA
T1 chain 2: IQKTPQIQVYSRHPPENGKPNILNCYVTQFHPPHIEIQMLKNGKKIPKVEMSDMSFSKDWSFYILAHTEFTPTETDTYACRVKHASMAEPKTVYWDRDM
Assay: peptide loading on MutuDC1940 cells for 24 h, read by 25D1.16 staining and flow cytometry
Settings: remark: other sources report otherwise

saturate peptide concentration: 2 µg/mL
Binder: SIINFEKL [OVA^257-264 antigen peptide]
